# Data as given in patent US20260184778A1 (REGENECORE BIOTECH, published 2026).
# What was measured:
# Experiment in all cases: cell-based or functional assay
# [1] = molecular target: IL-5 (human, UniProt P05113 20-134)
# [2] = molecular target: T1, IL-4Rα (human, UniProt P24394 26-232, limits assumed)
# [3] = molecular target: T1, IL-4Rα; remark: listed apart in the source
# Sequence of IL-5 (P05113 20-134 limits assumed): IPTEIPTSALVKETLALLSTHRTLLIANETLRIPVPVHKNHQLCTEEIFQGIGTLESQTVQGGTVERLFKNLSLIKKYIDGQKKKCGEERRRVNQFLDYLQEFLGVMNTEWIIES
molecule,measurement,setting,value
hIgG (antibody),"EC50 (nM), neutralizing IL-5-induced TF-1 cell proliferation (control)",[1],0.108 nM
"dupilumab (Tab made by the applicant) (antibody, V domains shown) VH: EVQLVESGGGLEQPGGSLRLSCAGSGFTFRDYAMTWVRQAPGKGLEWVSSISGSGGNTYYADSVKGRFTISRDNSKNTLYLQMNSLRAEDTAVYYCAKDRLSITIRPRYYGLDVWGQGTTVTVSS VL: DIVMTQSPLSLPVTPGEPASISCRSSQSLLYSIGYNYLDWYLQKSGQSPQLLIYLGSNRASGVPDRFSGSGSGTDFTLKISRVEAEDVGFYYCMQALQTPYTFGQGTKLEIKR","EC50 (nM), neutralizing IL-4-induced TF-1 proliferation",[2],0.13 nM
same,"EC50(nM), neutralizing IL-13-induced TF-1 proliferation",[3],0.178 nM
"reslizumab (Tab made by the applicant) (antibody, V domains shown) VH: EVQLVESGGGLVQPGGSLRLSCAVSGLSLTSNSVNWIRQAPGKGLEWVGLIWSNGDTDYNSAIKSRFTISRDTSKSTVYLQMNSLRAEDTAVYYCAREYYGYFDYWGQGTLVTVSS VL: DIQMTQSPSSLSASVGDRVTITCLASEGISSYLAWYQQKPGKAPKLLIYGANSLQTGVPSRFSGSGSATDYTLTISSLQPEDFATYYCQQSYKFPNTFGQGTKVEVK","EC50 (nM), neutralizing IL-5-induced TF-1 cell proliferation",[1],0.122 nM
